Reference: PMC10700433

Assays:
[1] = target: ATOR-1017 (evunzekibart) (human); experiment: BLI; Octet RED96; antibodies captured on FABG2 biosensor tips, recombinant Fcγ receptors in solution at suitable concentration ranges; association and dissociation at physiological pH; conditions: remark: other sources report otherwise
[2] = target: human 4-1BB on activated primary human immune cells (human (endogenous in primary PBMC)) (UniProt Q07011)
human 4-1BB on activated primary human immune cells (human (endogenous in primary PBMC)), sequence (Q07011 24-255): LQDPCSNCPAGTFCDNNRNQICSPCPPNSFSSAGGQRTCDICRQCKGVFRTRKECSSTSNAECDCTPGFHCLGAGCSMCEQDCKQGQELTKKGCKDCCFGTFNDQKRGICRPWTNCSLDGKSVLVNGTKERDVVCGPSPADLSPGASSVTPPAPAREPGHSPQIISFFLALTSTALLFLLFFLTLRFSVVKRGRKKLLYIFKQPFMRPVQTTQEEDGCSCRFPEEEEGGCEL

| Binder | Kd [1] [nM] | IFNγ production by IL-2 pre-stimulated human NK cells co-cultured with FcγRI-CHO cells, serially diluted ATOR-1017 [2] [nM] | IFNγ production by anti-CD3-activated human CD8+ T cells co-cultured with FcγRI-CHO cells, 72 h, serially diluted ATOR-1017 [2] [nM] |
| --- | --- | --- | --- |
| mouse FcγRI, P26151 25-404 (receptor, here or on the partner: soluble ectodomain assumed for BLI) EVVNATKAVITLQPPWVSIFQKENVTLWCEGPHLPGDSSTQWFINGTAVQISTPSYSIPEASFQDSGEYRCQIGSSMPSDPVQLQIHNDWLLLQASRRVLTEGEPLALRCHGWKNKLVYNVVFYRNGKSFQFSSDSEVAILKTNLSHSGIYHCSGTGRHRYTSAGVSITVKELFTTPVLRASVSSPFPEGSLVTLNCETNLLLQRPGLQLHFSFYVGSKILEYRNTSSEYHIARAEREDAGFYWCEVATEDSSVLKRSPELELQVLGPQSSAP | 200 |  |  |
| ATOR-1017 (evunzekibart) (antibody, V domains shown) VH: EVQLLESGGGLVQPGGSLRLSCAASGFNFGYSYMSWVRQAPGKGLEWVSSIGSTSSHTYYADSVKGRFTISRDNSKNTLYLQMNSLRAEDTAVYYCARVYSSPGIDYWGQGTLVTVSS VL: DIQMTQSPSSLSASVGDRVTITCRASQSIGSTLNWYQQKPGKAPKLLIYGASSLQSGVPSRFSGSGSGTDFTLTISSLQPEDFATYYCQQYYTWVPFTFGQGTKLEIK |  | 0.1 | 0.2 |
| human FcγRIIb, P31994 43-310 (receptor, here or on the partner: soluble ectodomain assumed for BLI) TPAAPPKAVLKLEPQWINVLQEDSVTLTCRGTHSPESDSIQWFHNGNLIPTHTQPSYRFKANNNDSGEYTCQTGQTSLSDPVHLTVLSEWLVLQTPHLEFQEGETIVLRCHSWKDKPLVKVTFFQNGKSKKFSRSDPNFSIPQANHSHSGDYHCTGNIGYTLYSSKPVTITVQAP | 800 |  |  |
| human FcγRIIa, P12318 34-317 (receptor, here or on the partner: Soluble extracellular domain by convention (UniProt topology); construct limits not printed. Allotype of the recombinant protein not stated in the excerpt: given as H131 (H167 in precursor numbering);) QAAAPPKAVLKLEPPWINVLQEDSVTLTCQGARSPESDSIQWFHNGNLIPTHTQPSYRFKANNNDSGEYTCQTGQTSLSDPVHLTVLSEWLVLQTPHLEFQEGETIMLRCHSWKDKPLVKVTFFQNGKSQKFSHLDPTFSIPQANHSHSGDYHCTGNIGYTLFSSKPVTITVQVPSMGSSSPMG | 1000 |  |  |
